For two molecules, fold proteasome purified (chymotryptic activity) relative to UbL-A and fold increase of proteasome interaction / associated chymotryptic activity relative to UbL-A^1-79 results are on record in US20120028271A1.

The target of experiment [1] is proteasome of mammalian cell and human tissue extracts (detected through Rpt1, Rpn2, Rpn1 and 20S alpha subunits and chymotryptic activity) (human). The experiment in a line: GST pull-down from cell extracts, co-purified chymotryptic activity standardized to UbL-A, 14 measurements.
For experiment [2] the target is unchanged. In words: GST pull-down from cell extracts, co-purified chymotryptic activity, 5 measurements.

Chain of proteasome of mammalian cell and human tissue extracts (detected through Rpt1, Rpn2, Rpn1 and 20S alpha subunits and chymotryptic activity) (human) (P35998 2-433, form in doubt, chain 1 of 2): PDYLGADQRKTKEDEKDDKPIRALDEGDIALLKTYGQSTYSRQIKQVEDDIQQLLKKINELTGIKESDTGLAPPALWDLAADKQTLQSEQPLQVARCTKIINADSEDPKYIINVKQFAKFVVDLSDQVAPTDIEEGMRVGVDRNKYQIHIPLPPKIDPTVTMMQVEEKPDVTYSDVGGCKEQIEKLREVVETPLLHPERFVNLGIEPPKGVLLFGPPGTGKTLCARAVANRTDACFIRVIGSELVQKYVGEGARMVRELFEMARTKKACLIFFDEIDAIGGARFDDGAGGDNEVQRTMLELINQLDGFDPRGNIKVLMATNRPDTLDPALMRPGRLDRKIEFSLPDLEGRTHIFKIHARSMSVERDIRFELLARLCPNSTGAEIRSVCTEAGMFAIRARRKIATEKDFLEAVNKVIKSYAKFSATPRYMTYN
Chain of proteasome of mammalian cell and human tissue extracts (detected through Rpt1, Rpn2, Rpn1 and 20S alpha subunits and chymotryptic activity) (human) (B8ZZH9 whole entry, form in doubt, chain 2 of 2, further chain): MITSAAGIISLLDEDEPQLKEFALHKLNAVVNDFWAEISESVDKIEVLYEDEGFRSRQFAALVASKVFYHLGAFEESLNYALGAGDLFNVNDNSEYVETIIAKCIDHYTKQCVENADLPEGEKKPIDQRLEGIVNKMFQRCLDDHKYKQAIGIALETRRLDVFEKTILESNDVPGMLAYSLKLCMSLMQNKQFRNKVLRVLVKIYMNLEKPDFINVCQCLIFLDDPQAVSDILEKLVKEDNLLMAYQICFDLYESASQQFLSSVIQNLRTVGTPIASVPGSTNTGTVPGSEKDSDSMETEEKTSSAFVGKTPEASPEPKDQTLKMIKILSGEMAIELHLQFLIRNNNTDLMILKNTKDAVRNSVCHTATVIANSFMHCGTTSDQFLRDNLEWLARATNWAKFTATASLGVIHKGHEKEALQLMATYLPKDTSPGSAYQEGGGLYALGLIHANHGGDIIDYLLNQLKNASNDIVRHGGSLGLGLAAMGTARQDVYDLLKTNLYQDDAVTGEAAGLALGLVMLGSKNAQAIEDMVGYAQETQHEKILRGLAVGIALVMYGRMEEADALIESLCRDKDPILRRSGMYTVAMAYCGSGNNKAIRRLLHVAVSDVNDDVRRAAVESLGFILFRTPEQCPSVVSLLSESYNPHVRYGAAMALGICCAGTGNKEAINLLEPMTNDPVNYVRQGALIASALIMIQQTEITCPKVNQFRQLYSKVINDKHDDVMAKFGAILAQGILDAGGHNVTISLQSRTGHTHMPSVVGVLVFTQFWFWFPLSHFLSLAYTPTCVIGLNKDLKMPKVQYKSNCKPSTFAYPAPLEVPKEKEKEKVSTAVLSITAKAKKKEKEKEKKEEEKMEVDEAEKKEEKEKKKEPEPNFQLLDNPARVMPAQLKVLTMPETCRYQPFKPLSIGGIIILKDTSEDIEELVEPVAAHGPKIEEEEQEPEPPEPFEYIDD

In the case of “GST-UbL-B (UbL domain of human hHR23B, residues 1-78) (from UniProt P54727 1-78)”, the fold proteasome purified (chymotryptic activity) relative to UbL-A in experiment [1] was found to be 2.94 fold.

B1: GST-UbL-A^1-78 (UbL domain of hHR23A ending in Val-Val-Val-Met-Val-Thr-Lys) (protein, not shown: a dimerising Fc or GST)
chain: MAVTITLKTLQQQTFKIRMEPDETVKVLKEKIEAEKGRDAFPVAGQKLIYAGKILSDDVPIRDYRIDEKNFVVVMVTK
Regarding B1, the fold increase of proteasome interaction / associated chymotryptic activity relative to UbL-A^1-79 in experiment [2] is 2.5 fold.
